Data published in patent publication US20190106510A1 (CELLDEX THERAPEUTICS, published 2019).
Substitutions are numbered along the chain they refer to.

T1: murine KIT (murine, UniProt P05532 25-527, limits assumed)
T1 sequence (looked up): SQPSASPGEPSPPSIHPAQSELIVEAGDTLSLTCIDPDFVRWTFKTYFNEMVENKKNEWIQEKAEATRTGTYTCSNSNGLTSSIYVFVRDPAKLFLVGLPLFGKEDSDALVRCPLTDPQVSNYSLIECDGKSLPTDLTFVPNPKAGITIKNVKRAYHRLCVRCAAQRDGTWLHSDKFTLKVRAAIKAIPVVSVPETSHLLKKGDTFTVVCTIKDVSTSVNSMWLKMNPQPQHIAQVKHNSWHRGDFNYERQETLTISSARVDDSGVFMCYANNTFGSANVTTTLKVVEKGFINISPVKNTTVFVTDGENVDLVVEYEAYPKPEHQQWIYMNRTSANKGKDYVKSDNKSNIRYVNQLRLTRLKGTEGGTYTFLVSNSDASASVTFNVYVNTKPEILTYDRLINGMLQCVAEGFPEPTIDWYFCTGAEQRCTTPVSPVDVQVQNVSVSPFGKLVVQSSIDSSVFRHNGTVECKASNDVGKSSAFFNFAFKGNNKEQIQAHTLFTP

B1: Hum1 (antibody, V domains shown)
VH: QVQLVQSGAELKKPGASVKLSCKASGYTFTDYYINWVKQAPGKGLEWIARIYPGSGNTYYNEKFKGRATLTAEKSTSTAYMQLSSLRSEDSAVYFCARGVYYFDYWGQGTTVTVSS
VL: DIVMTQSPSFLSASVGDRVTITCKASQNVRTNVAWYQQKPGKAPKALIYSASYRYSGVPDRFTGSGSGTDFTLTISSLQSEDFADYFCQQYNSYPRTFGGGTKVEIK
notes: Variable regions cloned into expression vectors for human IgG1 VH chains and human V kappa chains
B2: Hum2 (antibody, V domains shown)
VH: B1 VH with L11V, S91T
VL: B1 VL
B3: Hum3 (antibody, V domains shown)
VH: B1 VH with L11V, K38R, E73D, S91T
VL: B1 VL
B4: Hum4 (antibody, V domains shown)
VH: B1 VH with L11V, L20V, K38R, L70I, E73D, Q82E, S91T
VL: B1 VL
B5: Hum5 (antibody, V domains shown)
VH: B1 VH with L11V, L20V, K38R, A68V, L70I, E73D, Q82E, S91T
VL: B1 VL
B6: Hum6 (antibody, V domains shown)
VH: B1 VH
VL: B1 VL with F10S, S80P
B7: Hum7 (antibody, V domains shown)
VH: B1 VH with L11V, S91T
VL: B1 VL with F10S, S80P
B8: Hum9 (antibody, V domains shown)
VH: B1 VH with L11V, L20V, K38R, L70I, E73D, Q82E, S91T
VL: B1 VL with F10S, S80P
B9: Hum11 (antibody, V domains shown)
VH: B1 VH
VL: B1 VL with F10S, T63S, S80P
B10: Hum12 (antibody, V domains shown)
VH: B1 VH with L11V, S91T
VL: B1 VL with F10S, T63S, S80P
B11: Hum13 (antibody, V domains shown)
VH: B1 VH with L11V, K38R, E73D, S91T
VL: B1 VL with F10S, T63S, S80P
B12: Hum14 (antibody, V domains shown)
VH: B1 VH with L11V, L20V, K38R, L70I, E73D, Q82E, S91T
VL: B1 VL with F10S, T63S, S80P
B13: Hum15 (antibody, V domains shown)
VH: B1 VH with L11V, L20V, K38R, A68V, L70I, E73D, Q82E, S91T
VL: B1 VL with F10S, T63S, S80P
B14: Hum16 (antibody, V domains shown)
VH: B1 VH
VL: B1 VL with F10S, A46S, T63S, S80P, D85T, F87Y
B15: Hum18 (antibody, V domains shown)
VH: B1 VH with L11V, K38R, E73D, S91T
VL: B1 VL with F10S, A46S, T63S, S80P, D85T, F87Y
B16: Hum19 (antibody, V domains shown)
VH: B1 VH with L11V, L20V, K38R, L70I, E73D, Q82E, S91T
VL: B1 VL with F10S, A46S, T63S, S80P, D85T, F87Y
B17: Hum20 (antibody, V domains shown)
VH: B1 VH with L11V, L20V, K38R, A68V, L70I, E73D, Q82E, S91T
VL: B1 VL with F10S, A46S, T63S, S80P, D85T, F87Y

Tests used:
recombinant KIT D4/D5 [1] = biological target: T2, recombinant KIT D4/D5 (human, UniProt P10721 26-519); assay: direct binding ELISA, plate-coated recombinant KIT D4/D5; assay #2 (supernatant)
T2 construct: also called recombinant c-Kit Ig-like domains D4/D5; recombinant polypeptide of the D4/D5 region of human KIT
Procedure: (§1) The binding affinity of the anti-KIT antibodies to the target antigen KIT Ig-like domains D4/D5 was assessed by direct binding ELISA. […] Bound antibody was detected with anti-human Ig-HRP followed by detection using TMB substrate.

[2] = biological target: T3, full-length, wild-type human KIT expressed on CHO cells (human, UniProt P10721 26-976); assay: flow cytometry on CHO cells expressing full-length wild-type human KIT (FIG. 6)
T3 construct: also called CHO/KIT-WT; CHO-KIT cells
Procedure: Briefly, parental CHO cells and CHO/KIT-WT cells were washed and incubated with 0.01 nM, 0.1 nM, 1 nM or 10 nM of a chimeric (human-mouse) 37M antibody, antibody Hum17, Hum8, Hum4, or Hum10, a negative control isotype IgG antibody, or a commercial anti-KIT antibody as a positive control. The samples were processed for flow cytometry analysis. More specifically, cells were removed from the culture flasks using EDTA, and washed with PBS. Then, the cells were resuspended in media and counted. Each sample containing approximately 200,000 to 250,000 cells was spun, the media was removed, and the cells were resuspended in FC buffer (1% BSA, 0.01% sodium azide in 1×PBS) for the blocking step. The cells were incubated in FC buffer for 1 hour on ice. Then, primary antibody (e.g., a chimeric (human-mouse) 37M antibody, Hum17, Hum8, Hum4, Hum10, positive control anti-KIT antibody, or negative control antibody) was added to the cells in FC buffer as described above. The samples were mixed and incubated on ice for 1 hour, followed by washing the cells with 0.5-1 mL FC buffer. The FC buffer was removed by spinning the cells at 1200 rpm for 3 minutes at 4° C., decanting the liquid. The cell pellets were resuspended in 200 μL FC buffer, and secondary antibody (DyLight 488 AffiniPure Goat Anti-Mouse IgG Jackson Laboratories) was added to the cells at a 1:1000 to 1:2000 dilution. The samples were mixed and incubated on ice for 1 hour, and then washed as described above. The samples were run on a fluorescence activated cell sorter (FACS) machine (Accuri FlowCytometer C6). Samples were analyzed by following channel FLA-1 for DyLight-conjugated samples.

recombinant KIT D4/D5 [3] = biological target: T2, recombinant KIT D4/D5; assay: solid phase ELISA, plate-adsorbed recombinant D4/D5 region of human KIT (FIG. 5)
Procedure: Recombinant antigen corresponding to the D4/D5 region of the KIT extracellular domain (see FIG. 2) was absorbed onto 96-well microtiter plates. In particular, recombinant antigen (5 μg) were diluted into 10 mL of borate buffer, and 100 μL of the antigen solution were added to each well of a 96 well plate and were incubated at 4° C. overnight.
ELISA: Following one rinse with TBS-T, blocking buffer (200 μL) was added to each well of the plate with the adsorbed antigen and was incubate at room temperature for one hour. Then, the blocking buffer was removed, and the serially diluted solutions of test antibodies and controls were added to the plate in a volume of 50 μL and incubated at room temperature for one hour. The antibody solutions were removed, and the plate was washed three times with 100 μL of wash buffer on a plate washer. After the last wash, the plate was blotted dry. Secondary antibody solution was diluted 1:8000 and was added to each well in a volume of 100 μL and allowed to incubate for one hour at room temperature. The diluted secondary antibody solution was removed, and the plate was washed three times with 100 μL of wash buffer on a plate washer. Then, freshly mixed TMB substrate solution was added to each well in a volume of 100 μL and was allowed to incubate at room temperature for 30 minutes. Subsequently, 100 μL of 2N H₂SO₄ were added to each well and immediately read on the plate reader. An irrelevant antibody served as the negative control, and an anti-KIT antibody against the D4 and/or D5 domain of the extracellular region of KIT served as the positive control. OD values for each sample were obtained at a wavelength of 450 nm.
Results were analyzed using Graph Pad Prism and Excel to obtain the concentration of antibodies at 50% binding to antigen.

[4] = biological target: T3, full-length, wild-type human KIT …; assay: cell-based or functional assay
recombinant KIT D4/D5 [5] = biological target: T2, recombinant KIT D4/D5; assay: direct binding ELISA, plate-coated recombinant KIT D4/D5; assay #3 (purified)
Procedure: as §1

[6] = biological target: T3, full-length, wild-type human KIT …; assay: cell-based or functional assay; remark: listed apart in the source
recombinant KIT D4/D5 [7] = biological target: T2, recombinant KIT D4/D5; assay: direct binding ELISA, plate-coated recombinant KIT D4/D5; assay #4 (purified)
Procedure: as §1

murine KIT = biological target: T1, murine KIT; assay: additional binding assays (format not described)
recombinant KIT D4/D5 [8] = biological target: T2, recombinant KIT D4/D5; assay: direct binding ELISA, plate-coated recombinant KIT D4/D5; assay #1 (supernatant)
Procedure: as §1

T2 sequence (P10721 other isoform, or with tags, fused parts or gaps limits assumed): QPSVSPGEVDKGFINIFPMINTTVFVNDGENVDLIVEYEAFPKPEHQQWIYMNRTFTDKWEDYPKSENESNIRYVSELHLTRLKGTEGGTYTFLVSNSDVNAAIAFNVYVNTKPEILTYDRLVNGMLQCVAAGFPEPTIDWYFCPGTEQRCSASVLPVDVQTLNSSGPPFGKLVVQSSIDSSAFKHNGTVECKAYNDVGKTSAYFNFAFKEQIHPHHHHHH
T3 sequence (P10721 other isoform, or with tags, fused parts or gaps limits assumed): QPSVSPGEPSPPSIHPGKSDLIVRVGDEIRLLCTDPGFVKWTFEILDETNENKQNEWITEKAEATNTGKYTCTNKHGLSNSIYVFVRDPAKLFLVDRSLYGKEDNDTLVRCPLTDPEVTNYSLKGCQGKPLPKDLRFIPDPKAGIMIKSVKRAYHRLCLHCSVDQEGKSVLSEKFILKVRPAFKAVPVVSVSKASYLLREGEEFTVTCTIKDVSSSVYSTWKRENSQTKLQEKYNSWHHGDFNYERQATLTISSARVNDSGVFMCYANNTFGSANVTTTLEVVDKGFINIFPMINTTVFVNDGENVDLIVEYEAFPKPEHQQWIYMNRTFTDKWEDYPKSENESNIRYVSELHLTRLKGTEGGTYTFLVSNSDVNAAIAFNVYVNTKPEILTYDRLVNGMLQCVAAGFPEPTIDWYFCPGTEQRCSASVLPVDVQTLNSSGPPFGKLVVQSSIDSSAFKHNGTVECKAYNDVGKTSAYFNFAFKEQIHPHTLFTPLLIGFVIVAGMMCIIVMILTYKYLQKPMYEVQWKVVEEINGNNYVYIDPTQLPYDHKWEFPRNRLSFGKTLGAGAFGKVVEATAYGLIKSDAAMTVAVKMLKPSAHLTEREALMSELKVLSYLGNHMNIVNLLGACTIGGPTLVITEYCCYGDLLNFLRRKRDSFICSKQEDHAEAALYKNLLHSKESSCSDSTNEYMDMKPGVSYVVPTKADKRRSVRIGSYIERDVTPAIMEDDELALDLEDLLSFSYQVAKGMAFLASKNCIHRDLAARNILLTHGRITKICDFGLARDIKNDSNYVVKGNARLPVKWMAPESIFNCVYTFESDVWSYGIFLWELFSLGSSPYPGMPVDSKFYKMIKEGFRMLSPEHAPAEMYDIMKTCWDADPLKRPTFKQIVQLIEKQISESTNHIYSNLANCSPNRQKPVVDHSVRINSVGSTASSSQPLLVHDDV

Row | Binder | Relative binding activity (recombinant KIT D4/D5 [1]) | Relative binding activity (recombinant KIT D4/D5 [5]) | Relative binding activity (recombinant KIT D4/D5 [8]) | further results
1 | B1 | 0.64 relative to chimeric antibody 37C (normalized EC50) | – | – | –
2 | B2 | 0.79 relative to chimeric antibody 37C (normalized EC50) | – | – | –
3 | B3 | 0.88 relative to chimeric antibody 37C (normalized EC50) | – | – | –
4 | B4 | 0.91 relative to chimeric antibody 37C (normalized EC50) | 1.07 relative to chimeric antibody 37C (normalized EC50) | – | EC50 [2]: ~0.106 nM; EC50 (recombinant KIT D4/D5 [3]): ~7.5 pM; 50% inhibition concentration (IC50), SCF-induced KIT tyrosine phosphorylation, cell-based phospho-KIT ELISA [4]: ~470 pM; Relative blocking activity, assay #2 (24-well): IC50 of inhibition of SCF-induced KIT phosphorylation, normalized to chimeric 37M antibody [6]: 1.2 relative to chimeric 37M antibody; Relative blocking activity, assay #4 (96-well): IC50 of inhibition of SCF-induced KIT phosphorylation, normalized to chimeric 37M antibody [6]: 0.86 relative to chimeric 37M antibody; Relative binding activity (recombinant KIT D4/D5 [7]): 0.83 relative to chimeric antibody 37C (normalized EC50); binding result (murine KIT): no binding
5 | B5 | 0.93 relative to chimeric antibody 37C (normalized EC50) | – | – | –
6 | B6 | 0.7 relative to chimeric antibody 37C (normalized EC50) | – | 1.15 relative to chimeric antibody 37C (normalized EC50) | –
7 | B7 | 0.8 relative to chimeric antibody 37C (normalized EC50) | – | 1.12 relative to chimeric antibody 37C (normalized EC50) | –
8 | B8 | 1 relative to chimeric antibody 37C (normalized EC50) | 0.85 relative to chimeric antibody 37C (normalized EC50) | 1.08 relative to chimeric antibody 37C (normalized EC50) | Relative blocking activity, assay #3 (96-well): IC50 of inhibition of SCF-induced KIT phosphorylation, normalized to chimeric 37M antibody [6]: 1.05 relative to chimeric 37M antibody
9 | B9 | 0.74 relative to chimeric antibody 37C (normalized EC50) | – | – | –
10 | B10 | 0.72 relative to chimeric antibody 37C (normalized EC50) | – | 1.23 relative to chimeric antibody 37C (normalized EC50) | –
11 | B11 | 0.78 relative to chimeric antibody 37C (normalized EC50) | – | 1.11 relative to chimeric antibody 37C (normalized EC50) | Relative blocking activity, assay #3 (96-well): IC50 of inhibition of SCF-induced KIT phosphorylation, normalized to chimeric 37M antibody [6]: 1 relative to chimeric 37M antibody
12 | B12 | 1.03 relative to chimeric antibody 37C (normalized EC50) | 0.74 relative to chimeric antibody 37C (normalized EC50) | 1.14 relative to chimeric antibody 37C (normalized EC50) | Relative blocking activity, assay #2 (24-well): IC50 of inhibition of SCF-induced KIT phosphorylation, normalized to chimeric 37M antibody [6]: 0.94 relative to chimeric 37M antibody
13 | B13 | 0.76 relative to chimeric antibody 37C (normalized EC50) | 0.87 relative to chimeric antibody 37C (normalized EC50) | 0.87 relative to chimeric antibody 37C (normalized EC50) | Relative blocking activity, assay #1 (24-well): IC50 of inhibition of SCF-induced KIT phosphorylation, normalized to chimeric 37M antibody [6]: 0.98 relative to chimeric 37M antibody; Relative blocking activity, assay #3 (96-well): IC50 of inhibition of SCF-induced KIT phosphorylation, normalized to chimeric 37M antibody [6]: 0.99 relative to chimeric 37M antibody
14 | B14 | 1.02 relative to chimeric antibody 37C (normalized EC50) | – | 1.2 relative to chimeric antibody 37C (normalized EC50) | –
15 | B15 | 0.79 relative to chimeric antibody 37C (normalized EC50) | 0.99 relative to chimeric antibody 37C (normalized EC50) | 1.22 relative to chimeric antibody 37C (normalized EC50) | Relative blocking activity, assay #2 (24-well): IC50 of inhibition of SCF-induced KIT phosphorylation, normalized to chimeric 37M antibody [6]: 1.22 relative to chimeric 37M antibody
16 | B16 | 1.05 relative to chimeric antibody 37C (normalized EC50) | 0.95 relative to chimeric antibody 37C (normalized EC50) | 1.11 relative to chimeric antibody 37C (normalized EC50) | Relative blocking activity, assay #1 (24-well): IC50 of inhibition of SCF-induced KIT phosphorylation, normalized to chimeric 37M antibody [6]: 1.09 relative to chimeric 37M antibody; Relative blocking activity, assay #3 (96-well): IC50 of inhibition of SCF-induced KIT phosphorylation, normalized to chimeric 37M antibody [6]: 0.98 relative to chimeric 37M antibody; Relative blocking activity, assay #4 (96-well): IC50 of inhibition of SCF-induced KIT phosphorylation, normalized to chimeric 37M antibody [6]: 1.4 relative to chimeric 37M antibody; Relative binding activity (recombinant KIT D4/D5 [7]): 0.85 relative to chimeric antibody 37C (normalized EC50)
17 | B17 | 0.7 relative to chimeric antibody 37C (normalized EC50) | – | 0.8 relative to chimeric antibody 37C (normalized EC50) | –
